Laboratory results reported in patent EP4631523A2.

Assays:
interleukin 6 (IL-6) [1] = molecular target: interleukin 6 (IL-6) (UniProt P05231); assay: IL-6 binding ELISA; 25±2°C, 6 months
interleukin 6 (IL-6) [2] = molecular target: interleukin 6 (IL-6) (UniProt P05231); assay: IL-6 binding ELISA; 25±2°C, 1 month
interleukin 6 (IL-6) [3] = molecular target: interleukin 6 (IL-6) (UniProt P05231); assay: IL-6 binding ELISA; 5±3°C, 9 months
interleukin 6 (IL-6) [4] = molecular target: interleukin 6 (IL-6) (UniProt P05231); assay: IL-6 binding ELISA; 40±2°C, 0 months
interleukin 6 (IL-6) [5] = molecular target: interleukin 6 (IL-6) (UniProt P05231); assay: IL-6 binding ELISA; 5±3°C, 0 months
interleukin 6 (IL-6) [6] = molecular target: interleukin 6 (IL-6) (UniProt P05231); assay: IL-6 binding ELISA; 5±3°C, 12 months
interleukin 6 (IL-6) [7] = molecular target: interleukin 6 (IL-6) (UniProt P05231); assay: IL-6 binding ELISA; 40±2°C, 3 months
interleukin 6 (IL-6) [8] = molecular target: interleukin 6 (IL-6) (UniProt P05231); assay: IL-6 binding ELISA; 5±3°C, 1 month
interleukin 6 (IL-6) [9] = molecular target: interleukin 6 (IL-6) (UniProt P05231); assay: IL-6 binding ELISA; 25±2°C, 6 months; remark: listed apart in the source
interleukin 6 (IL-6) [10] = molecular target: interleukin 6 (IL-6) (UniProt P05231); assay: IL-6 binding ELISA; 40±2°C, 1 month
interleukin 6 (IL-6) [11] = molecular target: interleukin 6 (IL-6) (UniProt P05231); assay: IL-6 binding ELISA, relative to a Phase I DS lot; 20 mg/mL formulation without methionine, T0 (frozen aliquot)
interleukin 6 (IL-6) [12] = molecular target: interleukin 6 (IL-6) (UniProt P05231); assay: IL-6 binding ELISA; 5±3°C, 6 months
interleukin 6 (IL-6) [13] = molecular target: interleukin 6 (IL-6) (UniProt P05231); assay: IL-6 binding ELISA; 25±2°C, 6 months; remark: listed apart in the source
interleukin 6 (IL-6) [14] = molecular target: interleukin 6 (IL-6) (UniProt P05231); assay: IL-6 binding ELISA; 25±2°C, 0 months
interleukin 6 (IL-6) [15] = molecular target: interleukin 6 (IL-6) (UniProt P05231); assay: IL-6 binding ELISA; 25±2°C, 3 months
interleukin 6 (IL-6) [16] = molecular target: interleukin 6 (IL-6) (UniProt P05231); assay: IL-6 binding ELISA; 40±2°C, 1 month; remark: listed apart in the source
interleukin 6 (IL-6) [17] = molecular target: interleukin 6 (IL-6) (UniProt P05231); assay: IL-6 binding ELISA; 5±3°C, 1 month; remark: listed apart in the source
interleukin 6 (IL-6) [18] = molecular target: interleukin 6 (IL-6) (UniProt P05231); assay: IL-6 binding ELISA; 25±2°C, 3 months; remark: listed apart in the source
interleukin 6 (IL-6) [19] = molecular target: interleukin 6 (IL-6) (UniProt P05231); assay: IL-6 binding ELISA; 40±2°C, 3 months; remark: listed apart in the source
interleukin 6 (IL-6) [20] = molecular target: interleukin 6 (IL-6) (UniProt P05231); assay: IL-6 binding ELISA; 5±3°C, 0 months; remark: listed apart in the source
interleukin 6 (IL-6) [21] = molecular target: interleukin 6 (IL-6) (UniProt P05231); assay: IL-6 binding ELISA; 5±3°C, 6 months; remark: listed apart in the source
interleukin 6 (IL-6) [22] = molecular target: interleukin 6 (IL-6) (UniProt P05231); assay: IL-6 binding ELISA, relative to a Phase I DS lot; 50 mg/mL formulation without methionine, 12 months at 2 to 8°C
interleukin 6 (IL-6) [23] = molecular target: interleukin 6 (IL-6) (UniProt P05231); assay: IL-6 binding ELISA; 25±2°C, 6 months; remark: listed apart in the source
interleukin 6 (IL-6) [24] = molecular target: interleukin 6 (IL-6) (UniProt P05231); assay: IL-6 binding ELISA, relative to a Phase I DS lot; 120 mg/mL formulation without methionine, 9 months at 2 to 8°C
interleukin 6 (IL-6) [25] = molecular target: interleukin 6 (IL-6) (UniProt P05231); assay: IL-6 binding ELISA, relative to a Phase I DS lot; 20 mg/mL formulation without methionine, 12 months at 2 to 8°C
interleukin 6 (IL-6) [26] = molecular target: interleukin 6 (IL-6) (UniProt P05231); assay: IL-6 binding ELISA; 40±2°C, 0 months; remark: listed apart in the source
interleukin 6 (IL-6) [27] = molecular target: interleukin 6 (IL-6) (UniProt P05231); assay: IL-6 binding ELISA; 40±2°C, 3 months; remark: listed apart in the source
interleukin 6 (IL-6) [28] = molecular target: interleukin 6 (IL-6) (UniProt P05231); assay: IL-6 binding ELISA; 25±2°C, 1 month; remark: listed apart in the source
interleukin 6 (IL-6) [29] = molecular target: interleukin 6 (IL-6) (UniProt P05231); assay: IL-6 binding ELISA; 5±3°C, 0 months; remark: listed apart in the source
interleukin 6 (IL-6) [30] = molecular target: interleukin 6 (IL-6) (UniProt P05231); assay: IL-6 binding ELISA, relative to a Phase I DS lot; 50 mg/mL formulation without methionine, T0 (frozen aliquot)
interleukin 6 (IL-6) [31] = molecular target: interleukin 6 (IL-6) (UniProt P05231); assay: IL-6 binding ELISA; 5±3°C, 9 months; remark: listed apart in the source
interleukin 6 (IL-6) [32] = molecular target: interleukin 6 (IL-6) (UniProt P05231); assay: IL-6 binding ELISA; 5±3°C, 3 months

Sequence of UniProt P05231 (P05231 30-212 limits assumed): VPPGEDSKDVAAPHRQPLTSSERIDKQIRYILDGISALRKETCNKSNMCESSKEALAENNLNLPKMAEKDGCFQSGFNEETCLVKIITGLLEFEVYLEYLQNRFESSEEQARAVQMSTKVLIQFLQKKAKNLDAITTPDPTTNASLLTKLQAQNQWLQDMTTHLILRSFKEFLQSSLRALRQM

B1: COR-001 antibody (antibody, human IgG1, kappa, V domains shown)
VH: EVQLVESGGGLVQPGGSLRLSCAASGFTISSNYMIWVRQAPGKGLEWVSDLYYYAGDTYYADSVKGRFTMSRDISKNTVYLQMNSLRAEDTAVYYCARWADDHPPWIDLWGRGTLVTVSS
VL: DIQMTQSPSTLSASVGDRVTITCRASQGISSWLAWYQQKPGKAPKVLIYKASTLESGVPSRFSGSGSGTEFTLTISSLQPDDFATYYCQQSWLGGSFGQGTKLEIKR
Binder B1 has an IL-6 binding ELISA (% of Reference Standard) (interleukin 6 (IL-6) [1]) of 100%, an IL-6 binding ELISA (% of Reference Standard) (interleukin 6 (IL-6) [2]) of 96% and an IL-6 binding ELISA (% of Reference Standard) (interleukin 6 (IL-6) [3]) of 98%. It also gave an IL-6 binding ELISA (% of Reference Standard) (interleukin 6 (IL-6) [4]) of 97%, an IL-6 binding ELISA (% of Reference Standard) (interleukin 6 (IL-6) [5]) of 94% and an IL-6 binding ELISA (% of Reference Standard) (interleukin 6 (IL-6) [6]) of 98%. For the same binder, the IL-6 binding ELISA (% of Reference Standard) (interleukin 6 (IL-6) [7]) was 99%, the IL-6 binding ELISA (% of Reference Standard) (interleukin 6 (IL-6) [8]) was 94% and the IL-6 binding ELISA (% of Reference Standard) (interleukin 6 (IL-6) [9]) was 82%. It also gave an IL-6 binding ELISA (% of Reference Standard) (interleukin 6 (IL-6) [10]) of 85%, an IL-6 binding ELISA (% of assay control) (interleukin 6 (IL-6) [11]) of 61% and an IL-6 binding ELISA (% of Reference Standard) (interleukin 6 (IL-6) [12]) of 92%. For the same binder, the IL-6 binding ELISA (% of Reference Standard) (interleukin 6 (IL-6) [13]) was 92%, the IL-6 binding ELISA (% of Reference Standard) (interleukin 6 (IL-6) [14]) was 91% and the IL-6 binding ELISA (% of Reference Standard) (interleukin 6 (IL-6) [15]) was 91%. The IL-6 binding ELISA (% of Reference Standard) (interleukin 6 (IL-6) [16]) was 92%, the IL-6 binding ELISA (% of Reference Standard) (interleukin 6 (IL-6) [17]) was 98% and the IL-6 binding ELISA (% of Reference Standard) (interleukin 6 (IL-6) [18]) was 90%. It also gave an IL-6 binding ELISA (% of Reference Standard) (interleukin 6 (IL-6) [19]) of 78%, an IL-6 binding ELISA (% of Reference Standard) (interleukin 6 (IL-6) [20]) of 103% and an IL-6 binding ELISA (% of Reference Standard) (interleukin 6 (IL-6) [21]) of 95%. The IL-6 binding ELISA (% of assay control) (interleukin 6 (IL-6) [22]) was 89%, the IL-6 binding ELISA (% of Reference Standard) (interleukin 6 (IL-6) [23]) was 88% and the IL-6 binding ELISA (% of assay control) (interleukin 6 (IL-6) [24]) was 79%. For the same binder, the IL-6 binding ELISA (% of assay control) (interleukin 6 (IL-6) [25]) was 84%, the IL-6 binding ELISA (% of Reference Standard) (interleukin 6 (IL-6) [26]) was 94% and the IL-6 binding ELISA (% of Reference Standard) (interleukin 6 (IL-6) [27]) was 94%. For the same binder, the IL-6 binding ELISA (% of Reference Standard) (interleukin 6 (IL-6) [28]) was 93%, the IL-6 binding ELISA (% of Reference Standard) (interleukin 6 (IL-6) [29]) was 96% and the IL-6 binding ELISA (% of assay control) (interleukin 6 (IL-6) [30]) was 70%. It also gave an IL-6 binding ELISA (% of Reference Standard) (interleukin 6 (IL-6) [31]) of 89% and an IL-6 binding ELISA (% of Reference Standard) (interleukin 6 (IL-6) [32]) of 83%.
